Measurements as given in PMC10801562 (Antibodies, 2024).
Substitutions are numbered along the chain they refer to.

B1: m4D5 mIgG1, homodimeric antibody without FAST-Ig mutations (antibody, V domains shown)
VH: QVQLQQSGPELVKPGASLKLSCTASGFNIKDTYIHWVKQRPEQGLEWIGRIYPTNGYTRYDPKFQDKATITADTSSNTAYLQVSRLTSEDTAVYYCSRWGGDGFYAMDYWGQGASVTVSS
VL: DIVMTQSHKFMSTSVGDRVSITCKASQDVNTAVAWYQQKPGHSPKLLIYSASFRYTGVPDRFTGSRSGTDFTFTISSVQAEDLAVYYCQQHYTTPPTFGGGTKVEIK
notes: VH of the original mouse antibody m4D5; mouse IgG1 (mIgG1) heavy chain constant region; numbers count on: Eu numbering; VL of m4D5; mouse kappa light chain constant region (CL); Whole IgG of one HC and one LC; also called anti-HER2; H1L1H1L1; source: Expi293F, transiently expressed, purified (Ab-Capcher MAG2 or MonoSpin ProG); copies: 2 + 2
B2: m4D5 mIgG2a, homodimeric antibody without FAST-Ig mutations (antibody, V domains shown)
VH: B1 VH
VL: B1 VL
notes: VH of the original mouse antibody m4D5; mouse IgG2a (mIgG2a) heavy chain constant region; numbers count on: Eu numbering; VL of m4D5; mouse kappa light chain constant region (CL); Whole IgG of one HC and one LC; also called anti-HER2; H1L1H1L1; source: Expi293F, transiently expressed, purified (Ab-Capcher MAG2, MonoSpin ProA or MonoSpin ProG); copies: 2 + 2
B3: m4D5 mIgG1 V1+C19, homodimeric antibody with FAST-Ig V1+C19 mutations (antibody, V domains shown)
VH: B1 VH with Q39K
VL: B1 VL with Q38E
notes: VH of m4D5; mouse IgG1 (mIgG1) heavy chain constant region; K147 kept; numbers count on: Eu numbering; VL of m4D5; mouse kappa light chain constant region (CL); numbers count on: Kabat numbering; Whole IgG of one HC and one LC; also called anti-HER2; H1L1H1L1; source: Expi293F, transiently expressed, purified (Ab-Capcher MAG2 or MonoSpin ProG); copies: 2 + 2
B4: m4D5 mIgG2a V1+C19, homodimeric antibody with FAST-Ig V1+C19 mutations (antibody, V domains shown)
VH: B1 VH with Q39K
VL: B1 VL with Q38E
notes: VH of m4D5; mouse IgG2a (mIgG2a) heavy chain constant region; K147 kept; numbers count on: Eu numbering; VL of m4D5; mouse kappa light chain constant region (CL); numbers count on: Kabat numbering; Whole IgG of one HC and one LC; also called anti-HER2; H1L1H1L1; source: Expi293F, transiently expressed, purified (Ab-Capcher MAG2, MonoSpin ProA or MonoSpin ProG); copies: 2 + 2
B5: mOKT3 mIgG1 V1+C19, homodimeric antibody with FAST-Ig V1+C19 mutations (antibody, V domains shown)
VH: not shown
VL: QIVLTQSPAIMSASPGEKVTMTCSASSSVSYMNWYQKKSGTSPKRWIYDTSKLASGVPAHFRGSGSGTSYSLTISGMEAEDAATYYCQQWSSNPFTFGSGTKLEIN
notes: VH of mOKT3; mouse IgG1 (mIgG1) heavy chain constant region; numbers count on: Eu numbering; VL of mOKT3; mouse kappa light chain constant region (CL); numbers count on: Kabat numbering; Whole IgG of one HC and one LC; also called anti-CD3; H2L2H2L2; source: Expi293F, transiently expressed, purified (Ab-Capcher MAG2 or MonoSpin ProG); copies: 2 + 2
B6: mHIT3a mIgG1 V1+C19, homodimeric antibody with FAST-Ig V1+C19 mutations (antibody, V domains shown)
VH: QVQLQESGAELARPGASVKMSCKASGYTFTRYTMHWVKERPGQGLEWIGYINPSRGYTNYNQKFKDKATLTTDKSSSTAYMELTRLTSEDSAVYYCARYYDDHYCLDYWGQGTTVTVSS
VL: B5 VL with Q1D, V3E, H60R, R62S, I105L, N106K
notes: VH of mHIT3a; mouse IgG1 (mIgG1) heavy chain constant region; numbers count on: Eu numbering; VL of mHIT3a; mouse kappa light chain constant region (CL); numbers count on: Kabat numbering; Whole IgG of one HC and one LC; also called anti-CD3; H2L2H2L2; source: Expi293F, transiently expressed, purified (Ab-Capcher MAG2 or MonoSpin ProG); copies: 2 + 2
B7: mOKT3 mIgG2a V1+C19, homodimeric antibody with FAST-Ig V1+C19 mutations (antibody, V domains shown)
VH: not shown
VL: B5 VL
notes: VH of mOKT3; mouse IgG2a (mIgG2a) heavy chain constant region; numbers count on: Eu numbering; VL of mOKT3; mouse kappa light chain constant region (CL); numbers count on: Kabat numbering; Whole IgG of one HC and one LC; also called anti-CD3; H2L2H2L2; source: Expi293F, transiently expressed, purified (Ab-Capcher MAG2, MonoSpin ProA or MonoSpin ProG); copies: 2 + 2
B8: mHIT3a mIgG1, homodimeric antibody without FAST-Ig mutations (antibody, V domains shown)
VH: B6 VH with E39Q
VL: B5 VL with Q1D, V3E, K37Q, H60R, R62S, I105L, N106K
notes: VH of the original mouse antibody mHIT3a; mouse IgG1 (mIgG1) heavy chain constant region; numbers count on: Eu numbering; VL of the original mouse antibody mHIT3a; mouse kappa light chain constant region (CL); Whole IgG of one HC and one LC; also called anti-CD3; H2L2H2L2; source: Expi293F, transiently expressed, purified (Ab-Capcher MAG2 or MonoSpin ProG); copies: 2 + 2
B9: mHIT3a mIgG2a, homodimeric antibody without FAST-Ig mutations (antibody, V domains shown)
VH: B6 VH with E39Q
VL: B5 VL with Q1D, V3E, K37Q, H60R, R62S, I105L, N106K
notes: VH of the original mouse antibody mHIT3a; mouse IgG2a (mIgG2a) heavy chain constant region; numbers count on: Eu numbering; VL of the original mouse antibody mHIT3a; mouse kappa light chain constant region (CL); Whole IgG of one HC and one LC; also called anti-CD3; H2L2H2L2; source: Expi293F, transiently expressed, purified (Ab-Capcher MAG2, MonoSpin ProA or MonoSpin ProG); copies: 2 + 2
B10: mHIT3a mIgG2a V1+C19, homodimeric antibody with FAST-Ig V1+C19 mutations (antibody, V domains shown)
VH: B6 VH
VL: B5 VL with Q1D, V3E, H60R, R62S, I105L, N106K
notes: VH of mHIT3a; mouse IgG2a (mIgG2a) heavy chain constant region; numbers count on: Eu numbering; VL of mHIT3a; mouse kappa light chain constant region (CL); numbers count on: Kabat numbering; Whole IgG of one HC and one LC; also called anti-CD3; H2L2H2L2; source: Expi293F, transiently expressed, purified (Ab-Capcher MAG2, MonoSpin ProA or MonoSpin ProG); copies: 2 + 2
B11: m2C4 mIgG2a, homodimeric antibody without FAST-Ig mutations (antibody, V domains shown)
VH: EVQLQQSGPELVKPGTSVKISCKASGFTFTDYTMDWVKQSHGKSLEWIGDVNPNSGGSIYNQRFKGKASLTVDRSSRIVYMELRSLTFEDTAVYYCARNLGPSFYFDYWGQGTTLTVSS
VL: DTVMTQSHKIMSTSVGDRVSITCKASQDVSIGVAWYQQRPGQSPKLLIYSASYRYTGVPDRFTGSGSGTDFTFTISSVQAEDLAVYYCQQYYIYPYTFGGGTKLEIK
notes: VH of the original mouse antibody m2C4; mouse IgG2a (mIgG2a) heavy chain constant region; numbers count on: Eu numbering; VL of the original mouse antibody m2C4; mouse kappa light chain constant region (CL); Whole IgG of one HC and one LC; also called anti-HER2; H1L1H1L1; source: Expi293F, transiently expressed, purified (Ab-Capcher MAG2, MonoSpin ProA or MonoSpin ProG); copies: 2 + 2
B12: m2C4 mIgG1, homodimeric antibody without FAST-Ig mutations (antibody, V domains shown)
VH: B11 VH
VL: B11 VL
notes: VH of the original mouse antibody m2C4; mouse IgG1 (mIgG1) heavy chain constant region; numbers count on: Eu numbering; VL of the original mouse antibody m2C4; mouse kappa light chain constant region (CL); Whole IgG of one HC and one LC; also called anti-HER2; H1L1H1L1; source: Expi293F, transiently expressed, purified (Ab-Capcher MAG2 or MonoSpin ProG); copies: 2 + 2
B13: m2C4 mIgG1 V1+C19, homodimeric antibody with FAST-Ig V1+C19 mutations (antibody, V domains shown)
VH: B11 VH with Q39K
VL: B11 VL with Q38E
notes: VH of m2C4; mouse IgG1 (mIgG1) heavy chain constant region; K147 kept; numbers count on: Eu numbering; VL of m2C4; mouse kappa light chain constant region (CL); numbers count on: Kabat numbering; Whole IgG of one HC and one LC; also called anti-HER2; H1L1H1L1; source: Expi293F, transiently expressed, purified (Ab-Capcher MAG2 or MonoSpin ProG); copies: 2 + 2
B14: m2C4 mIgG2a V1+C19, homodimeric antibody with FAST-Ig V1+C19 mutations (antibody, V domains shown)
VH: B11 VH with Q39K
VL: B11 VL with Q38E
notes: VH of m2C4; mouse IgG2a (mIgG2a) heavy chain constant region; K147 kept; numbers count on: Eu numbering; VL of m2C4; mouse kappa light chain constant region (CL); numbers count on: Kabat numbering; Whole IgG of one HC and one LC; also called anti-HER2; H1L1H1L1; source: Expi293F, transiently expressed, purified (Ab-Capcher MAG2, MonoSpin ProA or MonoSpin ProG); copies: 2 + 2
B15: m12F6 mIgG1 V1+C19, homodimeric antibody with FAST-Ig V1+C19 mutations (antibody, V domains shown)
VH: QVQLQQSGAELARPGASVKMSCKASGYTFTSYTMHWVKERPGQGLEWIGYINPSSGYTKYNQKFKDKATLTADKSSSTAYMQLSSLTSEDSAVYYCARWQDYDVYFDYWGQGTTLTVSS
VL: QIVLSQSPAILSASPGEKVTMTCRASSSVSYMHWYQKKPGSSPKPWIYATSNLASGVPARFSGSGSGTSYSLTISRVEAEDAATYYCQQWSSNPPTFGGGTKLETK
notes: VH of m12F6; mouse IgG1 (mIgG1) heavy chain constant region; numbers count on: Eu numbering; VL of m12F6; mouse kappa light chain constant region (CL); numbers count on: Kabat numbering; Whole IgG of one HC and one LC; also called anti-CD3; H2L2H2L2; source: Expi293F, transiently expressed, purified (Ab-Capcher MAG2 or MonoSpin ProG); copies: 2 + 2
B16: m12F6 mIgG2a, homodimeric antibody without FAST-Ig mutations (antibody, V domains shown)
VH: B15 VH with E39Q
VL: B15 VL with K37Q
notes: VH of the original mouse antibody m12F6; mouse IgG2a (mIgG2a) heavy chain constant region; numbers count on: Eu numbering; VL of the original mouse antibody m12F6; mouse kappa light chain constant region (CL); Whole IgG of one HC and one LC; also called anti-CD3; H2L2H2L2; source: Expi293F, transiently expressed, purified (Ab-Capcher MAG2, MonoSpin ProA or MonoSpin ProG); copies: 2 + 2
B17: m12F6 mIgG2a V1+C19, homodimeric antibody with FAST-Ig V1+C19 mutations (antibody, V domains shown)
VH: B15 VH
VL: B15 VL
notes: VH of m12F6; mouse IgG2a (mIgG2a) heavy chain constant region; numbers count on: Eu numbering; VL of m12F6; mouse kappa light chain constant region (CL); numbers count on: Kabat numbering; Whole IgG of one HC and one LC; also called anti-CD3; H2L2H2L2; source: Expi293F, transiently expressed, purified (Ab-Capcher MAG2, MonoSpin ProA or MonoSpin ProG); copies: 2 + 2
B18: m12F6 mIgG1, homodimeric antibody without FAST-Ig mutations (antibody, V domains shown)
VH: B15 VH with E39Q
VL: B15 VL with K37Q
notes: VH of the original mouse antibody m12F6; mouse IgG1 (mIgG1) heavy chain constant region; numbers count on: Eu numbering; VL of the original mouse antibody m12F6; mouse kappa light chain constant region (CL); Whole IgG of one HC and one LC; also called anti-CD3; H2L2H2L2; source: Expi293F, transiently expressed, purified (Ab-Capcher MAG2 or MonoSpin ProG); copies: 2 + 2

Tests used:
[1] = biological target: T1, recombinant human HER2 (Sino Biological, 10004-H08H) (Homo sapiens, UniProt P04626); test: SPR; Biacore T200, 37 °C, pH 7.4, PB-P+ (0.05 mol/L Na-phosphate, 0.15 mol/L NaCl, 0.05% P-20); antibody captured (200 RU) by anti-mouse IgG (Fc) antibody on a CM4 chip; human HER2 as analyte, 6.3-100 nmol/L; 1:1 binding model; details: both partners purified
T1 construct: human epidermal growth factor receptor 2 (HER2), recombinant; also called human epidermal growth factor receptor 2; source: bought: Sino Biological

[2] = biological target: T2, recombinant human CD3ε-CD3δ heterodimeric protein (CD3εδ) (Homo sapiens); test: SPR; Biacore T200, 37 °C, pH 7.4, PB-P+; antibody captured (630 RU) by anti-mouse IgG (Fc) antibody on a CM4 chip; human CD3εδ as analyte, 18.8-19,200 nmol/L (mHIT3a, mOKT3) or 75-76,800 nmol/L (m12F6); steady state model; details: both partners purified
T2 construct: human CD3ε of the recombinant CD3εδ heterodimer; human CD3δ of the recombinant CD3εδ heterodimer; source: in-house prepared
T2 chain 1: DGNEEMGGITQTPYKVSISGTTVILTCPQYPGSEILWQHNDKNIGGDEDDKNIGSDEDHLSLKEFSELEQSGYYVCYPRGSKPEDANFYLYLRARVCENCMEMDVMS
T2 chain 2: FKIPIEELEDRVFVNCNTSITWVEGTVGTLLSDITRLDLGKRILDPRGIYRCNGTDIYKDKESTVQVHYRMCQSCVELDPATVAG

Row | Binder | Kd [1] [µM] | Kd [2] [µM]
1 | B1 | 0.00103 | 
2 | B2 | 0.00114 | 
3 | B3 | 0.00127 | 
4 | B4 | 0.00096 | 
5 | B5 |  | 4.48
6 | B6 |  | 8.32
7 | B7 |  | 7.68
8 | B8 |  | 7.54
9 | B9 |  | 10.4
10 | B10 |  | 10.4
11 | B11 | 0.00108 | 
12 | B12 | 0.000759 | 
13 | B13 | 0.000784 | 
14 | B14 | 0.00136 | 
15 | B15 |  | 16.1
16 | B16 |  | 16.7
17 | B17 |  | 16.4
18 | B18 |  | 16.8
